# Measured values taken from patent US20240058465A1 (SUTRO BIOPHARMA, published 2024).
# Numbering of substitutions follows the chain as printed.
# B1: SRP1943-C02 (antibody, IgG1, V domains shown)
# VH: EVQLVESGGGLAQPGGSLRLSCAAPGFNINDYYIHWVRQAPGKGLEWVGAIDPNSGSTDYADSVKGRFAISADTSKNTAYLQMNSLRAEDTAVYYCARSRWFRVLWSYVFDYWGQGTLVTVSS
# VL: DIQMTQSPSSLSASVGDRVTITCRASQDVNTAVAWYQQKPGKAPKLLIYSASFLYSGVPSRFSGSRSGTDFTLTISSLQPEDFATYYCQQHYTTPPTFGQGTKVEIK
# notes: Parent of SRP2193; His/FLAG-tagged IgG1, cell-free; also called Antibody 70
# B2: SRP2193-B02 (antibody, IgG1, V domains shown)
# VH: EVQLVESGGGLVQPGGSLRLSCAASGFNIKNSYIHWVRQAPGKGLEWVGTIDPTRGSTVHADSVKGRFTISADTSKNTAYLQMNSLRAEDTAVYYCARSRWFRVLWSYVFDYWGQGTLVTVSS
# VL: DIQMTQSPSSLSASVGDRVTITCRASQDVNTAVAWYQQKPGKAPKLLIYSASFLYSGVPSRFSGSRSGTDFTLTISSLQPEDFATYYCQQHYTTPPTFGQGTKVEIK
# notes: His/FLAG-tagged IgG1, cell-free; also called Antibody 77
# B3: SRP2194-A03 (antibody, IgG1, V domains shown)
# VH: EVQLVESGGGLVQPGGPLRLSCAASGFNITGYYIHWVRQAPGKGLEWVGYITPNSGTTYSADSVKGRFTISADTSKNTAYLQMNSLRAEDTAVYYCARDSRRYVRPLDYWGQGTLVTVSS
# VL: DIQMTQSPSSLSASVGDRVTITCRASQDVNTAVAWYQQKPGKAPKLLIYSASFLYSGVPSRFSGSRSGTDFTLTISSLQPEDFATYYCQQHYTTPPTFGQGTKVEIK
# notes: His/FLAG-tagged IgG1, cell-free
# B4: SRP2196-A01 (antibody, V domains shown)
# VH: B3 VH with P17S, Y50Q, T52S, T57Y, S60Y, P106G, L107W
# VL: QAVVTQESALTTSPGETVTLTCRSSTGAVTTSNYANWVQEKPDHLFTGLIGGTNKRAPGVPARFSGSLIGDKAALTITGAQTEDEAIYFCALWYSNLWVFGGGTKLTVL
# notes: His/FLAG-tagged IgG1
# B5: SRP2194-A11 (antibody, IgG1, V domains shown)
# VH: B3 VH with P17S, G31Q, T52S, T57Y, Y59T, S60D, L107F
# VL: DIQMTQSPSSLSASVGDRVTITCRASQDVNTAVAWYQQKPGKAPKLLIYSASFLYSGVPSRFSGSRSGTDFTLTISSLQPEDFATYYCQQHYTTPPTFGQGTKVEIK
# notes: His/FLAG-tagged IgG1, cell-free; also called Antibody 135
# B6: SRP2194-A08 (antibody, IgG1, V domains shown)
# VH: B3 VH with P17S, Y33H, T52A, N54S, T57Y, S60D, L107F
# VL: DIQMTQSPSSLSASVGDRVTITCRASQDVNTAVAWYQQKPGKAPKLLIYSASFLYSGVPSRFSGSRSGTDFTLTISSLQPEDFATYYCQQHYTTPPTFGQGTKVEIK
# notes: as for B3
# B7: SRP2194-A10 (antibody, IgG1, V domains shown)
# VH: B3 VH with P17S, G31Q, G42A, T52S, T57S, Y59H, S60I, L107F, G113S
# VL: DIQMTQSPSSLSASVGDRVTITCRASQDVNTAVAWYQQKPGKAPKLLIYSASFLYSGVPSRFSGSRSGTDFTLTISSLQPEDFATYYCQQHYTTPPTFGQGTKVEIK
# notes: as for B3
# B8: SRP2196-A02 (antibody, V domains shown)
# VH: B3 VH with P17S, Y50Q, T52S, T57A, Y59H, S60D, P106G, L107W
# VL: B4 VL
# notes: His/FLAG-tagged IgG1
# B9: SRP2194-A09 (antibody, IgG1, V domains shown)
# VH: B3 VH with P17S, N54L, T57A, S60R, L107F
# VL: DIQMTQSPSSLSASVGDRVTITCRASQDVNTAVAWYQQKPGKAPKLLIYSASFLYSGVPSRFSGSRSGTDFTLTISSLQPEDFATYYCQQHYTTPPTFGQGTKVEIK
# notes: His/FLAG-tagged IgG1, cell-free; also called Antibody 130
# B10: SRP2196-B05 (antibody, V domains shown)
# VH: B3 VH with P17S, Y50Q, T52S, T57A, S60H, P106G, L107W
# VL: B4 VL
# notes: His/FLAG-tagged IgG1
# B11: SRP2193-B05 (antibody, IgG1, V domains shown)
# VH: EVQLVESGGGLVQPGGSLRLSCAASGFNINQYYIHWVRQAPGEGLEWVGAIDPIGGSTHLADSVKGRFTISADTSKNTAYLQMNSLRAEDAAVYYCARSRWYRVLWSYVFDYWGQGTLVTVSS
# VL: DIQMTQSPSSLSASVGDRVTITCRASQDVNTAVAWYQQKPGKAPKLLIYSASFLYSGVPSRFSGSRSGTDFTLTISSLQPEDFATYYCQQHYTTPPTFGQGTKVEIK
# notes: His/FLAG-tagged IgG1, cell-free; also called Antibody 109
# B12: SRP2193-C01 (antibody, IgG1, V domains shown)
# VH: B2 VH with F27L, K30N, N31D, S32H, T54K, R55S, V59H, H60V
# VL: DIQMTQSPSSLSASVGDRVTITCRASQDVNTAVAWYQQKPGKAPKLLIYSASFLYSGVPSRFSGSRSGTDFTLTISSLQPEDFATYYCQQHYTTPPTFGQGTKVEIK
# notes: as for B3
# B13: SRP2193-B08 (antibody, IgG1, V domains shown)
# VH: EVQLVESGGGLVQPGGSLRLSCAASGFNIKDYYIHWVRQAPGKGLEWVSAIDPSPGATLDADSVKGRFTISADTSKNTAYLQMNSLRAEDTAVYYCARSRWFRVLWSYALDYWGQGTLVTVSS
# VL: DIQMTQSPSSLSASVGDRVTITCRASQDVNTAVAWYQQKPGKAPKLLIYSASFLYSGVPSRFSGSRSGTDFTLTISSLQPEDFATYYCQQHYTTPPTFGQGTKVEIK
# notes: His/FLAG-tagged IgG1, cell-free; also called Antibody 90
# B14: SRP2193-D11 (antibody, IgG1, V domains shown)
# VH: B1 VH with L11S, A12V, P25S, D31A, S55T, D59V, Y60D, A69T
# VL: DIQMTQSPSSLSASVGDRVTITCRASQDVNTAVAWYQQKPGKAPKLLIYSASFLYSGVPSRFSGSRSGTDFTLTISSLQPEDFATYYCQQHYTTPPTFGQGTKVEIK
# notes: His/FLAG-tagged IgG1, cell-free; also called Antibody 76
# B15: SRP2193-C06 (antibody, IgG1, V domains shown)
# VH: EVQLVESGGGLVQPGGSLRLSCAASGFNIIVHYIHWVRQAPGKGLEWVSAIDPISGSTQWADSVKGRFTISADTSKNTAYLQMNSLRAEDTAVYYCARSRWRRALWIYVFDYWGQGTLVTVSS
# VL: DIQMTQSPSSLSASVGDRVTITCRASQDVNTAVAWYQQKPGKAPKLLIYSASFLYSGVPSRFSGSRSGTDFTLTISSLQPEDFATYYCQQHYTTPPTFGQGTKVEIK
# notes: as for B3
# B16: SRP2193-E02 (antibody, IgG1, V domains shown)
# VH: B2 VH with N31D, S32Y, T50S, R55S, H60I, F102W
# VL: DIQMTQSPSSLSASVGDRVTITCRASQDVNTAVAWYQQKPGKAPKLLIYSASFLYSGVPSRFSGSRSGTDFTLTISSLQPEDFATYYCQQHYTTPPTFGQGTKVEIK
# notes: as for B3
# B17: SRP2193-C10 (antibody, IgG1, V domains shown)
# VH: B2 VH with K30N, S32A, T50A, T54R, R55S, V59I, H60S, V64M, Y108F, V109G
# VL: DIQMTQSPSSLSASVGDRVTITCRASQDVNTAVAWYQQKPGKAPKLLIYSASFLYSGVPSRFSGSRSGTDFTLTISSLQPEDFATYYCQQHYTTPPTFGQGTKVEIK
# notes: His/FLAG-tagged IgG1, cell-free; also called Antibody 123
# B18: SRP2193-E10 (antibody, IgG1, V domains shown)
# VH: B11 VH with N30Y, Q31D, E43K, I54V, G55N, H59N, L60N, A91T
# VL: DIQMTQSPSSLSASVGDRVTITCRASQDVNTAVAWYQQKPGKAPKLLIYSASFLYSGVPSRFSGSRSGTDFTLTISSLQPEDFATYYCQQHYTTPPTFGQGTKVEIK
# notes: His/FLAG-tagged IgG1, cell-free; also called Antibody 72
# B19: SRP2193-C03 (antibody, IgG1, V domains shown)
# VH: B11 VH with Q31Y, Y32S, E43K, D52E, I54K, G55S, H59A, L60S, F110L
# VL: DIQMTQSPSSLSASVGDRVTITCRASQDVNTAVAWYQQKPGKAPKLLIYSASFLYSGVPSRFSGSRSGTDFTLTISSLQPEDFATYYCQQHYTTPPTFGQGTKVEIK
# notes: as for B3
# B20: SRP2193-D07 (antibody, IgG1, V domains shown)
# VH: EVQLVESGGGLVQPGGSLRLSCAASGFNIIDYNIHWVRQAPGKGLEWVTAIGPADGSTVNADSLKGRFTISADTSKNTAYLQMNSLRAEDTAVYYCARSRWLRVLWSYVFDYWGQGTLVTVSS
# VL: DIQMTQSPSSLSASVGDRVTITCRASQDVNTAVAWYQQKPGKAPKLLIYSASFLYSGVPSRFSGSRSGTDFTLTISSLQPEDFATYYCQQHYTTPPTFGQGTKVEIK
# notes: as for B3
# B21: SRP2193-E09 (antibody, IgG1, V domains shown)
# VH: B2 VH with S21P, K30G, N31A, S32Y, T50A, T54G, R55S, S57Y, H60P, F102Y
# VL: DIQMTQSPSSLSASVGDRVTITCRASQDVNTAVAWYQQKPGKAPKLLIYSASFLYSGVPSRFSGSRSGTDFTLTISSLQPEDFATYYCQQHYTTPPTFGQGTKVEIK
# notes: as for B3
# B22: SRP2193-C08 (antibody, IgG1, V domains shown)
# VH: B1 VH with G9S, A12V, P25S, D31H, N54Y, S55P, D59Y, Y60N, A69T
# VL: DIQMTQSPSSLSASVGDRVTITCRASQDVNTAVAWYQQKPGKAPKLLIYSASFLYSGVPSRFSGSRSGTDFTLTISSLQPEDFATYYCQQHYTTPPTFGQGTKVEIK
# notes: His/FLAG-tagged IgG1, cell-free; also called Antibody 99
# B23: SRP2193-E04 (antibody, IgG1, V domains shown)
# VH: B2 VH with K30N, N31D, S32R, T50V, T54S, R55L, V59I, H60D, K76R
# VL: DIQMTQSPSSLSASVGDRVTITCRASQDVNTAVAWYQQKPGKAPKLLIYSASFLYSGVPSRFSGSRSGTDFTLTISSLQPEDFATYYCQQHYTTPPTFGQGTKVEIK
# notes: His/FLAG-tagged IgG1, cell-free; also called Antibody 74
# B24: SRP2193-B10 (antibody, IgG1, V domains shown)
# VH: B1 VH with A12V, P25S, N30A, I34V, S57Y, D59V, Y60K, A69T, F102L, Y108F
# VL: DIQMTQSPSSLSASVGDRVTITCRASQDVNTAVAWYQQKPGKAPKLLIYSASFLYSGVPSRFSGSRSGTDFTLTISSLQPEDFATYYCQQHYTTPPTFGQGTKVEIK
# notes: His/FLAG-tagged IgG1, cell-free; also called Antibody 88
# B25: SRP2193-B07 (antibody, IgG1, V domains shown)
# VH: B2 VH with K30N, T50A, T54N, R55S, V59L, H60S, N77S, V109I
# VL: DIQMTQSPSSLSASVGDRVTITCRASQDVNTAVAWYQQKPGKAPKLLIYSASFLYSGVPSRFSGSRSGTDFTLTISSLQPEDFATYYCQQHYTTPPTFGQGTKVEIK
# notes: as for B3
# B26: SRP2193-D03 (antibody, IgG1, V domains shown)
# VH: B15 VH with I30N, V31D, I54N, S55T, Q59V, W60N, R102S, A104V
# VL: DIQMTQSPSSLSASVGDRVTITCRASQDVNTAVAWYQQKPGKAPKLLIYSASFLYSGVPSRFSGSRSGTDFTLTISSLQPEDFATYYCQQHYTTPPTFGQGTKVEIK
# notes: His/FLAG-tagged IgG1, cell-free; also called Antibody 93
# B27: SRP2193-C05 (antibody, IgG1, V domains shown)
# VH: B2 VH with N31H, T50A, T54H, R55N, V59A, H60S, Y94H, F110I
# VL: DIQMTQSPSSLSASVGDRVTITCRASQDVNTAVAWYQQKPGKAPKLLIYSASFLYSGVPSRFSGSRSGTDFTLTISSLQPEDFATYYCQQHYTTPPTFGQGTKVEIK
# notes: His/FLAG-tagged IgG1, cell-free; also called Antibody 91
# Biological target: T1, human ROR1 Frizzled domain (hROR1-Fz) (human, UniProt Q01973 165-305)
# T1 construct: Acro Biosystems, made in HEK293
# Assay: SPR Biacore, IgG on anti-Fc, ROR1-Fz analyte
# Procedure: Anti-Fc polyclonal antibodies were immobilized onto a CMS chip (GE Life Sciences) using amine coupling chemistry (from Amine Coupling Kit, GE Life Sciences). The immobilization steps were carried out at a flow rate of 25 μL/min in 1×HBS-EP+buffer (GE Life Sciences; 10× Stock diluted before use). The sensor surfaces were activated for 7 min with a mixture of NHS (0.05 M) and EDC (0.2 M). The Anti-Fc antibodies were injected over all 4 flow cells at a concentration of 25 ug/ml in 10 mM sodium acetate, pH 4.5, for 7 min. Ethanolamine (1 M, pH 8.5) was injected for 7 min to block any remaining activated groups.
# Off-rate and kinetic binding experiments were performed at 25° C. using 1×HBS-EP+buffer. Test and control antibodies were injected over the anti-Fc surface at concentrations of 5-10 μg/mL for 12 seconds at a flow rate of 10 μL/min on flow cells 2, 3 and 4, followed by a buffer wash for 30 seconds at the same flow rate. […] After capturing ligand (antibody) on the anti-Fc surface, the analyte (hROR1, Fz or Kr domains, Acro Biosystems, Delaware) was bound for 180 seconds, followed by a 600 second dissociation phase at a flow rate of 50 μL/min. Between each ligand capture and analyte binding cycle, regeneration was carried out using 2 injections of 10 mM Glycine pH 2.0 for 30 seconds at 30 μL/min, followed by a 30 second buffer wash step.
Kd [nM],koff [s⁻¹],kon [M⁻¹ s⁻¹],Binder
97.6,0.05,539000,B1
2.35,0.000511,218000,B2

# Biological target: T2, human ROR1 (hROR1) (human, UniProt Q01973 30-937)
# T2 construct: On HCT116-hROR1 transfectants, Mino cells or Ntera-2 cells, as the assay of each row says; also called receptor tyrosine kinase like orphan receptor 1
# Assay: flow cytometry, HCT116-hROR1 cells
# Procedure: A mix of ROR1 positive and negative cells was prepared as follows. Ror1 negative cells were washed 2× in PBS then incubated in PBS containing 1 nM CellTrace™ Oregon Green488® (Life Technologies) at 37° C. for 30 minutes. Cells were then washed 2× with RPMI w/10% fetal calf serum (or FCS), washed 2× with FACS buffer (PBS+0.5% BSA), suspended thoroughly in ice-cold FACS buffer at a final concentration of 4×10^6 cells/ml and kept on ice. ROR1 positive cells were washed 2× in PBS and suspended with ice-cold FACS buffer at 4×10^6 cells/ml. ROR1 positive and negative cells were then mixed to obtain a 1-1 cell suspension and seeded at 50 μl per well on 96 well polypropylene plates. 50 μl of 6-12 point dilutions of anti-ROR1 variants starting from concentrations of ˜100-200 nM antibody was dispensed using BioMekFX (Beckman Coulter) into each well. Cells were then incubated on ice for 1 hr, washed with FACS buffer and incubated for 1 hr on ice with 50 μl FACS buffer containing 2.5 μg/ml Alexa647-conjugated Goat Anti-Human IgG dispensed using BioMekFX (Beckman Coulter). Cells were then washed 2× with FACS buffer and fixed for 10 minutes in 200 μl PBS with 2% PFA prior to fluorescence detection. Samples were acquired using a Beckton Dickinson LSRII FACS. Mean Fluorescence Intensity of ROR1 antibody binding was analyzed using FlowJo® software (Tree Star, Inc.).
Bmax (MFI),Kd [nM],Binder
7610,5.35,B3
15800,0.3,B4
8660,0.1,B5
8250,0.3,B6
8250,0.16,B7
15200,0.2,B8
8240,0.13,B9
14800,0.2,B10
15400,0.47,B11
15900,0.39,B12
14300,1.15,B13
15200,1.25,B14
14500,4.16,B15
16400,8.13,B16
16600,0.32,B17
15900,7.14,B18
15700,0.14,B19
15400,3.11,B20
16300,0.46,B21
15000,0.72,B22
14400,15.6,B23
14700,1.08,B24
15500,0.6,B25
15600,0.28,B2
15700,0.93,B26
15100,1.75,B27
